The record followed here is patent US9636415B2, “Bispecific molecule binding TLR9 and CD32 and comprising a T cell epitope for treatment of allergies” (S-TARget therapeutics GmbH, priority 2006, dated 2017).

The test system of one data set is PBMC. Kind of data set: IFN and IL-4 ELISA in pooled PBMC culture supernatants after immunization with SG100. Format: in vivo, rhesus monkey. Conditions: positive control, data not shown; PBMC of SG100-immunized animals. The protocol: 5 healthy house dust mite (HDM) naïve rhesus monkeys were immunized 3× with SG100 (100 μg/shot) absorbed on Alum) on d0, d14 and d28. Blood samples were taken on d0 and d49 for T cell activation and antibody production.
Proliferation: PBMC ([…]) were cultured for 4 days (37° C./5% CO2/99% humidity) in 8 plex with medium, warhead (2 μg/ml), Immunogen (2 μg/ml), Der p1 (2 μg/ml), Der p2 (2 μg/ml), Der p5 (2 μg/ml) and Der p7 (2 μg/ml). As positive control Con A (Concanavaline A, Sigma) was used. Proliferation was measured by [3H]-thymidine (0.5 μCi/well) during the final 18 hrs of a 4 day culture. Cells were harvested for β-scintillation counting (Topcount NXT, Packerd, Ramsey, Minn., USA). Net counts per minutes were calculated by subtracting the counts of the medium control from the counts induced by the different antigens.
From each well of the 8plex stimulations of the proliferation experiment, 50 μl supernatant was taken after 24 h and pooled. The pooled supernatants were tested for the presence of IFN and IL-4 using commercially available ELISA kits from U-Cytech, Utrecht The Netherlands).

Another data set deals with human pDCs. As to the kind of experiment: IFNα production of pDCs after stimulation with CpG targeted to CD32, AT10 or ScFV from IV.3 (Example 9). Conditions: CpG without targeting; p<0.04 resp. p<0.02. Format: cell-based.
The next data set has as its system pDCS in PBMC. As to the kind of experiment: IL-6 and TNFα production after stimulation with CpG targeted to CD32 by aCD32a peptide (Example 10). Format: cell-based, human. The following applies: CpG without targeting. The protocol:
Buffy coats were obtained from the Red Cross Austria. Cells were separated on ficoll hypack.
Freshly isolated PBMC's were incubated with 200 μg/ml aCD32a peptide published by Berntzen et al (J. Biol. Chem. (2009) 284:1126-1135; sequence ADGAWAWVWLTETAVGAAK-biotin, SEQ ID NO:68) in PBA (PBS containing 5% BSA) on ice for 30 minutes and washed twice with PBA, followed by an incubation with 10 μg/ml streptavidin in PBA on ice for 30 minutes and two times washing with PBA. Subsequently, PBMC's were incubated on ice for 15 minutes with either PBA, 5 μg/ml ODN-CpG C (M362, Axorra) in PBA or 5 μg/ml ODN-CpG C-3′-biotin in PBA (M362, Girindus). Unbound ODN-CpG C was washed away three time with PBA and PBMCs were cultured overnight (37° C., 5% CO2) in X-VIVO-15 medium (Cambrex), supplemented with 2% of decomplemented human AB+ serum. Supernatants were collected from PBMC cultures after overnight stimulation, and […] was analyzed with murine monoclonal capture and HRP-conjugated anti-IL-6 or TNF^L antibodies (BenderMed systems) using standard ELISA procedures.

For the next data set, the system named is mice. As to the kind of experiment: IgG1 and IgG2a ELISA after s.c. immunization of mice with ScFV-1-coil or warhead. It counts as in vivo, mouse. Conditions: day 28, s.c. 2x 35 μg d0, d14. The protocol: 24 mice (6/group) were immunized s.c. 2× with 35 μg in 150 μl ScFV-1-coil or with warhead (ScFV-1-coil-M362) either formulated on Alum or diluted in PBS. Immunizations were done on d0, and d14, sera were taken on d0 (before immunization) and d28 and analyzed for IgG1 and IgG2a against ScFV-1-coil (indicated as ScFV) and mAb IV.3 by standard ELISA.
A general note: An ELISA detects its analyte on a solid surface through an enzyme-linked reagent.

[1] abbreviates: independent of the presence of Alum.

Procedure for human pDCs: Buffy coats were obtained from healthy volunteers according to institutional guidelines and pDCs were purified by positive isolation using anti-BDCA-4-conjugated magnetic microbeads (Miltenyi Biotec) and cultured in X-VIVO-15 medium (Cambrex) supplemented with 2% of decomplemented human AB+ serum. pDCs purity was routinely up to 95%, as assessed by double staining BDCA-2/CD123 (Miltenyi Biotec) in a FACS.
Subsequently, pDCs were incubated on ice for 15 minutes with either PBA, 5 μg/ml ODN-CpG C (M362, Axorra) in PBA or 5 μg/ml ODN-CpG C-3′-biotin in PBA (M362, Biosearch Technologies). Unbound ODN-CpG C was washed away three time with PBA and pDCs were cultured overnight (37° C., 5% CO2) in X-VIVO-15 medium (Cambrex), supplemented with 2% of decomplemented human AB+ serum. Supernatants were collected from pDC cultures after overnight stimulation, and IFNα production was analyzed with murine monoclonal capture and HRP-conjugated anti-IFNα antibodies (BenderMed systems) using standard ELISA procedures.

For the molecule Concanavaline A [Con A], the “IL-4 after stimulation with Con A” value in the data set with PBMC is on record as “IL-4 was seen”.
“TCGTCGTCGTTCGAACGACGTTGAT (chemistry not fully specified) [CpG standard, CpG class C oligodeoxynucleotide, TLR9 agonist, used without targeting]”: the “potency of IFNα induction compared to CpG targeted to CD32” value with human pDCs is on record as “significantly less potent”. For the same molecule, the “IL-6 production: times less potent than CpG targeted to CD32” value with pDCS in PBMC was ~75 times.

B1: warhead (conjugate)
scFv: EVQLQQSGPELKKPGETVKISCKASGYTFTNYGMNWVKQAPGKGLKWMGWLNTYTGESIYPDDFKGRFAFSSETSASTAYLQINNLKNEDMATYFCARGDYGYDDPLDYWGQGTSVTVSSGGGGSGGGGSGGGGSDIVMTQAAPSVPVTPGESVSISCRSSKSLLHTNGNTYLHWFLQRPGQSPQLLIYRMSVLASGVPDRFSGSGSGTAFTLSISRVEAEDVGVFYCMQHLEYPLTFGAGTKLELKGSISAWSHPQFEKGPEVSALEKEVSALEKEVSALEKEVSALEKEVSALEK
For the molecule B1, in the data set with mice (setting [1]), the “IgG1 response to ScFV-1-coil” value is recorded as “strong”, the “IgG1 response to mAb IV.3” value is “strong”, the “IgG2 response to ScFV-1-coil” value is “strong” and the “IgG2 response to mAb IV.3” value is listed as “strong”.

B2: ScFV-1-coil: ScFV derived from mAb IV.3 with pepE coil plus StrepTag II (SEQ ID 93) (protein)
scFv: B1 scFv
modifications: ScFV
For B2, the IgG2a response entry in the data set with mice (on Alum or in PBS) is reported as “no IgG2a response was induced”. In addition, the “IgG1 response against ScFV-1-coil” value in the data set with mice (only in the presence of Alum) is on record as “induced an IgG1 response”.
